Common to all, as to type: cell-based, human
Assay [1] has as its system NK92 cells. Briefly: IFN gamma secretion assay in NK92 cells (Example 10). To be noted: IFNγ secretion, 1 ng/ml IL-12. As to the method: The IFNγ-secretion stimulating activity of the unconjugated IL-18 variants and corresponding IL-18 immunocytokines was evaluated on NK92 cell line. The NK cell line NK-92 derived from a patient with lymphoma (ATCC, Cat #CRL-2407) was cultured in aMEM medium supplemented with 12.5% FCS, 12.5% horse serum (HS), 50 uM B-mercaptoEthanol, and 2 ng/ml of recombinant Human Interleukin-2 (IL-2).
On the day of experiment, cells were harvested and washed with aMEM medium without IL-2 and resuspended in medium (w/o IL-2) containing 1 ng/ml of recombinant human Interleukin-12 (SinoBiologicals, Cat #CT011-H08H). After counting, cells were seeded at 100 000 cells/well in a 384 well titer plate and incubated at 37° C./5% CO2. Sixteen 4-fold serial dilutions of IL-18 analytes were prepared in aMEM medium—1 ng/ml IL-12 and were added to the NK-92 cells. […]
After 16-20 h incubation at 37° C./5% CO2, 5 μl of supernatant were carefully transferred to a 384 microwells OPTIPlate (Perkin Elmer; Cat #6007270) and Interferon-gamma (IFNγ) levels measured using the Human IFNγ AlphaLISA Assay Kit (Perkin Elmer, Cat #AL217C). […] AlphaLisa signal was then measured on an Enspire plate reader (Perkin Elmer) using 680 and 615 nm as excitation and emission wavelengths respectively. Half maximal effective concentration (EC50) was calculated based on a variable slope, four parameter analysis using GraphPad PRISM software.

For assay [2], the system named is NK92 cells. Briefly: Cellular IL-18 Binding Protein resistance assay in NK92 cells (Example 13). To be noted: IL-18BP-mediated inhibition of IFNγ secretion, IL-18 analyte 1 nM. As to the method:
The NK cell line NK-92 derived from a patient with lymphoma (ATCC, Cat #CR^L-2407) was cultured in αMEM medium supplemented with 20% FCS-Glutamax, 25 μM B-mercaptoethanol, and 100 IU/ml of recombinant Human Interleukin-2 (IL-2). On the day of experiment, cells were harvested and washed with αMEM medium without IL-2. After counting, cells were seeded at 100 000 cells/well in a 384 well titer plate and incubated at 37° C./5% CO2. Sixteen 2-fold serial dilutions of Fc fused human IL-18 binding protein isoform a (IL-18BPa; R&D systems, Cat #119-BP) were prepared in αMEM medium—1 ng/ml IL-12 containing 2 nM of each IL-18 variants and were added to the NK-92 cells. Final IL-18 analytes concentration was 1 nM and final IL-18BPa concentrations ranged from to 566 nM down to 17 pM.
After 16-20 h incubation at 37° C./5% CO2, 5 μl of supernatant were carefully transferred to a 384 microwells OPTIplate (Perkin Elmer; Cat #6007270) and Interferon-gamma (IFNγ) levels measured using the Human IFNγ AlphaLISA Assay Kit (Perkin Elmer, Cat #AL217C). […] AlphaLisa signal was then measured on an Enspire plate reader (Perkin Elmer) using 680 and 615 nm as excitation and emission wavelengths respectively. Half maximal inhibitory concentration (IC50) was calculated based on a variable slope, four parameter analysis using GraphPad PRISM software.

In assay [3] the test system is parental PD-1negative NK-92 cells. Briefly: IL-18BP mediated inhibition of IFN gamma secretion in parental PD-1 negative NK-92 cells (Example 18). To be noted: IL-18BP-mediated inhibition of IFNγ secretion, IL-18 analyte 1 nM. As to the method: To characterize the resistance of anti-PD1-IL18 immunocytokines (IC) on PD-1 positive cells, the NK-92 cell line was used to generate a PD-1 expressing cell line and furthermore, to measure the inhibition of IFN[…] release upon incubation with IL-18 variants and ICs in the presence of increasing quantities of human IL-18BP.
On the day of experiment, parental PD-1^negative and PD-1^positive transduced cells were harvested and washed with PBS 1× and resuspended in medium (w/o IL-2) containing 1 ng/ml of recombinant human Interleukin-12 (SinoBiologicals, Cat #CT011-H08H). After counting, cells were seeded at 100 000 cells/well in a 384 well culture plate and incubated at 37° C./5% CO2. When indicated, cells were preincubated with anti-PD-1 antibody LZM-009 at 17 uM during 30 min at 37° C. […]
After 16-20 h incubation at 37° C./5% CO2, 5 μl of supernatant were carefully transferred to a 384 microwell OptiIPlate (Perkin Elmer; Cat #6007270) and Interferon-gamma (IFNγ) levels measured using the Human IFNγ AlphaLISA Assay Kit (Perkin Elmer, Cat #AL217C). […] AlphaLISA signal was then measured on an Enspire plate reader (Perkin Elmer) using 680 and 615 nm as excitation and emission wavelengths respectively. Half maximal inhibitory concentration (IC50) was calculated based on a variable slope, four parameter analysis using GraphPad PRISM software.

EC50 and IC50 data for one molecule are collected here from patent publication US20250186597A1, “TARGETED IMMUNE ACTIVATION WITH IL-18 IMMUNOCYTOKINES” (BRIGHT PEAK THERAPEUTICS AG, priority 2023, published 2025).

B1: SEQ ID NO: 30: IL-18 polypeptide: E6K, V11I, C38A, K53A, T63A, C76A, C127A (protein)
chain: YFGKLKSKLSIIRNLNDQVLFIDQGNRPLFEDMTDSDARDNAPRTIFIISMYADSQPRGMAVAISVKCEKISTLSAENKIISFKEMNPPDNIKDTKSDIIFFQRSVPGHDNKMQFESSSYEGYFLAAEKERDLFKLILKKEDELGDRSIMFTVQNED
B1 returned an EC50 in the assay on NK92 cells [1] of 0.002 nM. For the same molecule, the IC50 came out at 488 nM in the assay on NK92 cells [2] and 110 nM in assay [3].
